Measurements published in patent publication US20100254995A1.

How the values were obtained:
[1] = target: human TNFR1 (soluble recombinant protein) (human) (UniProt P19438); assay: phage ELISA, plate coated with 1 nM TNFRI, anti-M13-HRP; phage pre-treated 1 h room temp with 10 ug/ml trypsin; phage input 1.13E+10
[2] = target: human TNFR1 (soluble recombinant protein) (human) (UniProt P19438); assay: phage ELISA, plate coated with 1 nM TNFRI, anti-M13-HRP; phage pre-treated 1 h room temp with 1 mg/ml trypsin; phage input 1.13E+10
[3] = target: human TNFR1 (soluble recombinant protein) (human) (UniProt P19438); assay: phage ELISA, plate coated with 1 nM TNFRI, anti-M13-HRP; phage pre-treated 1 h room temp with 100 ug/ml trypsin; phage input 1.13E+10

Chain of human TNFR1 (soluble recombinant protein) (human) (P19438 41-201 limits assumed): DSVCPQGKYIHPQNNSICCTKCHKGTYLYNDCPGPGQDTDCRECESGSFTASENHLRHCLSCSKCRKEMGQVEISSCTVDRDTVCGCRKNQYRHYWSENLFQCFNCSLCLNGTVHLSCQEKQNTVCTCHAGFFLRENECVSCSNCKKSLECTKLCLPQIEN

phage ELISA signal (read-out not named) [1]: 0.86 | phage ELISA signal (read-out not named) [2]: 0.183 | phage ELISA signal (read-out not named) [3]: 0.284
Substance: DOM1h-131
